Measured values: the supplement of paper PMC7877785
± gives the uncertainty stated by the source.

Assay: self-splicing fitness, log relative to wild type (ln ratio); higher = more splicing; Tetrahymena group I intron in knt gene, E. coli kanamycin selection, DiMSum; sequences stand for … in CUCUCU…GGAGGGAAAAGUUAUCAGGCAUGCACCUGGUAGCUAGUCUUUAAACCAAUAGAUUGCAUCGGUUUAAAAGGCAAGACCGUCAAAUUGCGGGAAAGGGGUCAACAGCCGUUCAGUACCAAGUCUCAGGGGAAACUUUGAGAUGGCCUUGCAAAGGGUAUGGUAAUAAGCUGACGGACAUGGUCCUAACCACGCAGCCAAGUCCUAAGUCAACAGAUCUUCUGUUGAUAUGGAUGCAGUUCACAGACUAAAUGUCGGUCGGGGAAGAUGUAUUCUUCUCAUAAGAUAUAGUCGGACCUCUCCUUAAUGGGAGCUAGCGGAUGAAGUGAUGCAACACUGGAGCCGCUGGGAACUAAUUUGUAUGCGAAAGUAUAUUGAUUAGUUUUGGAGUACUCGUGGUCG
Method in brief: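 Library with all eight P1ex-region intron nucleotides randomised, intron inside the knt kanamycin-resistance gene on pET-22b(+), in E. coli BL21(DE3). Cells grew overnight at 37°C or 30°C on LB agar with or without 25 μg/mL kanamycin (plus 100 μg/mL carbenicillin, 50 μM IPTG, 0.2% rhamnose), in six replicate transformations. Pooled colonies were amplicon-sequenced on Illumina HiSeq 2500. DiMSum fitness is the error-weighted combination of wild-type-normalised replicate fold changes, kanamycin versus none.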

Sequence	self-splicing fitness (ln) (30 °C)	self-splicing fitness (ln) (37 °C)
GACCAGCAAUAUUACGUCGU	-0.568 ± 0.052	-0.218 ± 0.069
GACCAGCAAUAUUACGUGAC	-1.27 ± 0.069	-1.7 ± 0.11
GACCAGCAAUAUUACGUGCA	-0.378 ± 0.07	-0.122 ± 0.086
GACCAGCAAUAUUACGUGUA	-0.635 ± 0.06	0.255 ± 0.074
GACCAGCAAUAUUACGUGUC	-3.52 ± 0.16	-3.05 ± 0.24
GACCAGCAAUAUUACGUUAG	-3.82 ± 0.24	-2.79 ± 0.2
GACCAGCAAUAUUACGUUUU	-0.363 ± 0.036	-0.174 ± 0.052
GACGAGCAAUAUUACGACCC	-0.0053 ± 0.24	-0.307 ± 0.22
GACGAGCAAUAUUACGAGGC	-3.33 ± 0.18	-2.85 ± 0.29
GACGAGCAAUAUUACGCAUC	–	-2.06 ± 0.36
GACGAGCAAUAUUACGCCUU	-3.3 ± 0.4	-1.48 ± 0.24
GACGAGCAAUAUUACGCGCC	-2.74 ± 0.19	-1.59 ± 0.25
GACGAGCAAUAUUACGCGUG	-3.11 ± 0.29	-1.77 ± 0.21
GACGAGCAAUAUUACGCUGA	-3.74 ± 0.35	-1.95 ± 0.24
GACGAGCAAUAUUACGGGAU	-4.33 ± 0.28	-1.74 ± 0.18
GACGAGCAAUAUUACGGUAC	-1.99 ± 0.39	-1.98 ± 0.34
GACGAGCAAUAUUACGGUAG	-4.01 ± 0.36	-2.18 ± 0.22
GACGAGCAAUAUUACGGUGC	-2.72 ± 0.28	-1.47 ± 0.25
GACGAGCAAUAUUACGUUGU	-3.4 ± 0.14	-2.74 ± 0.16
GACUAGCAAUAUUACGACUA	-1.04 ± 0.16	-0.443 ± 0.14
GACUAGCAAUAUUACGAGCC	-1.28 ± 0.17	-0.877 ± 0.26
GACUAGCAAUAUUACGAGGA	-2.29 ± 0.17	-1.43 ± 0.14
GACUAGCAAUAUUACGAUAG	-2.95 ± 0.16	-1.17 ± 0.12
GACUAGCAAUAUUACGCAAC	-0.979 ± 0.15	-1.54 ± 0.19

Sequence	self-splicing fitness (ln) (30 °C)	self-splicing fitness (ln) (37 °C)
GACUAGCAAUAUUACGCAAG	-4.58 ± 0.36	-1.6 ± 0.15
GACUAGCAAUAUUACGCACA	-0.58 ± 0.13	0.00566 ± 0.14
GACUAGCAAUAUUACGCCGA	-0.898 ± 0.21	-0.421 ± 0.2
GACUAGCAAUAUUACGCGGG	-2.7 ± 0.22	-1.75 ± 0.18
GACUAGCAAUAUUACGCUGA	-1.16 ± 0.14	-0.638 ± 0.14
GACUAGCAAUAUUACGGACU	-0.117 ± 0.11	-0.611 ± 0.14
GACUAGCAAUAUUACGGAUC	-0.87 ± 0.096	-0.304 ± 0.14
GACUAGCAAUAUUACGGCGU	-0.502 ± 0.11	-0.198 ± 0.1
GACUAGCAAUAUUACGGCUA	-2.4 ± 0.17	-0.921 ± 0.12
GACUAGCAAUAUUACGGGAC	-2.29 ± 0.17	-1.44 ± 0.19
GACUAGCAAUAUUACGGUAA	-0.126 ± 0.084	-0.197 ± 0.078
GACUAGCAAUAUUACGGUCC	–	-1.49 ± 0.42
GACUAGCAAUAUUACGGUGA	-1.07 ± 0.11	-0.694 ± 0.097
GACUAGCAAUAUUACGUACA	-1.02 ± 0.14	-0.0348 ± 0.15
GACUAGCAAUAUUACGUCCA	-2.24 ± 0.29	-1.47 ± 0.26
GACUAGCAAUAUUACGUGGC	-3.56 ± 0.24	-2.54 ± 0.21
GAGAAGCAAUAUUACGAAGG	-2.97 ± 0.24	–
GAGAAGCAAUAUUACGAAUC	-3.91 ± 0.31	-1.12 ± 0.19
GAGAAGCAAUAUUACGAAUG	-3.46 ± 0.28	-1.7 ± 0.18
GAGAAGCAAUAUUACGACCG	-0.945 ± 0.32	-0.457 ± 0.27
GAGAAGCAAUAUUACGACGC	-0.75 ± 0.15	-0.292 ± 0.17
GAGAAGCAAUAUUACGAGGA	-3.83 ± 0.33	-2.11 ± 0.19
GAGAAGCAAUAUUACGAGGG	-3.49 ± 0.17	-2.99 ± 0.19
GAGAAGCAAUAUUACGCAAG	-1.6 ± 0.2	-0.212 ± 0.21
